According to a protein production outcome set (Wang et al. 2014):

Assay: label from the status in PepcDB records

| Sequence | protein production |
| --- | --- |
| MDKYLSANSLEGVIDNEFSMPAPRWLNTYPAGPYRFINREFFIIAYETDPDLLQAILPPDMELLEPVVKFEFIRMPDSTGFGDYTESGQVVPVRYKGEEGGFTISMFLDCHAPIAGGREIWGFPKKLAKPKLFVEEDTLIGILKYGSIDIAIATMGYKHRPLDAEKVLESVKKPVFLLKNIPNVDGTPLVNQLTKTYLTDITVKGAWTGPGSLELHPHALAPISNLYIKKIVSVSHFITDLTLPYGKVVADYLA | not failed |
| MSTTDDSYIVVNNEAAGKVSLKEKWWHVLDTYKVGIIPVPLFVLAGVLIGIDCLSGKLPSDIVVMVATLAFFGFACGEFGKRLPIIGKMGAAAICATFIPSAMVHYGLLPDVVVESTTKFYKSTNILYLYICCIIVGSIMSMNRQTLIQGFMRIFFPMLCGEIAGMLVGMGVGIALGLDPFQIFFFLILPIMAGGVGEGAIPLSIGYATILHMDQGVALGRVLPIVMLGSLTAIILAGVLNQLGKRYPHLTGEGELMPNKGNNLGGSESSAPASAFSGKADVTTIASGALLAILLYMVGMLGHKMIGLPAPVGMLFAAVVVKLAHGVSPKMLEGSQVVYKFFQTSVTYPILFAVGVAITPWQELVNAFTIQNLLVIISTVVTLVGTGFLVGRKIGMHPIDVAIISCCQSGQGGTGDVAILTAGNRMMLMPFAQIATRIGGAINVSISLLVLANFLV | failed |
| VTGDRAGGRSWCLRRVGMSAGWLLLEDGCEVTVGRGFGVTYQLVSKICPLMISRNHCVLKQNPEGQWTIMDNKSLNGVWLNRARLEPLRVYSIHQGDYIQLGVPLENKENAEYEYEVTEEDWETIYPCLSPK | not failed |
| MTTFDAKKLKKEYLDWYNQILEFSNLSNNSVKIDTPFKDNSLDNLKIYALYDQSRDMITLTDDGYTIFGLENNGVSINKFKKRKKIFEEHLSAYGIKYNDKTHEIFVQTNFKNFNKSKHNLLQCLIFVNDMYLLSNPKSQNIFTEDVANKLDEHNIYYGRDIPIIGSSGVVHNFDFFISAKKNQKEKFINVFSNPNNSMIIKSKITDAMQAKKIKRHRQNEFIFILNDSKKEINEHNKNLLHENYISTIDYSELDEKIGLLI | failed |
| MGSGPELTQTSLETLQEALQTERITYVDTLNEDIGAVVESADQLAFDYVVGDVSDYGVSSNDHVHLDLVHEGSTIHCVLFGYKRSAIDATIEDGMQVAVKGSLSYYEDGGNVSVIVEDIVEVGEGTYQRIYEQNRQLLDSDGLLDPEHKQALPDFPERIGIATSATSDARMDAITSIHERYPDVDIVIQNTSVQGDDAMMSIMGAISELDDDPRVDVIVLTRGGGSDKHLRVFNETPLCRVIHKTETPVVVGVGHENDRTLADEVADRRVMTPTEAGNIVPERTTLEAELETLEERLNTAYTETAETTLETMDDRLTRAYRRTVESDLSAFEAELDRTYDTHVRDELTDLANRLEQARTQYDQQREREQEVAAHRRQRRRLLLILVALGLLVVALLLYILLPL | failed |
| MGTPAERWERARMFFDAKDYAAAARVLDGLVAQVPEQTGPRLLLARSYYHSAQLRRAEAELRVVVERDPVEHYARLMLGRTLERQGRQEEADAQLRIASALAGLEHHHHHH | failed |
| MSKICQITGKKAMVGNNVSHSKRRTKRVFDVNLFRKKFYWVEQDCWVVLRISAAGLRLINKIGLDAAIKRAAEKGFLNALEHHHHHH | not failed |
| MTIPELPKDLIEEILCYVPATYLKRLRSTCKGWNRLFKDDRRFAKKHYDKAAKQFLPLMSTNEELCAMSVNLHGTIPSLEVKDKPWLFVSDSKHCDIEISRIFHSGGLLLCFSRDGEISIIVWNPLTSETRLIRTRNRRDKGRNFVLGYYQEDKKTYYKILSFYLDSKDFEIFEFNSDSWRFIDDICPGLSLLYSDQCVSLKGNTYMFAIDDLSVSLLKYDFSTETSVPVPLPYKSRSFEAISLSVVREEKLSVLLQRDKSSKTEIWVTNVIDETTTKVMVVSWSKVLSLDLSPDLKIRYGESFLLDEEKKVIMIFNNRMEEENKSEDKLYIIGDDDNKATQVYTIHGYGPAVFNYFPSLVQIEQSSRQEEKS | failed |
| MSPIVSVPDITAPVENVPAILPKVVPGELIVNKPTGGDSDELFQYLVDILASPVYDVAIESPLELAEKLSDRLGVNFYIKREDKQRVFSFKLRGAYNMMSNLSREELDKGVITASAGNHAQGVALAGQRLNCVAKIVMPTTTPQIKIDAVRALGGDVVLYGKTFDEAQTHALELSEKDGLKYIPPFDDPGVIKGQGTIGTEINRQLKDIHAVFIPVGGGGLIAGVATFFKQIAPNTKIIGVEPYGAASMTLSLHEGHRVKLSNVDTFADGVAVALVGEYTFAKCQELIDGMVLVANDGISAAIKDVYDEGRNILETSGAVAIAGAAAYCEFYKIKNENIVAIASGANMDFSKLHKVTELAGLGSGK | not failed |
| VLTMPLVTSISQLNEPITLVSYTMGNVNGVPVNNVRKEHFTTWALVLSQYLSEVKASVGTKLEDTVTFVVRYDQPETILNSWRIEWQEKQYDIVKLTPDTAKKQWTTIIGKPVANK | not failed |
| VAITDNRGVITHVNEKFCDISQYEYYELVGTTHKIINSGFHPRSFFKQMWKTIAQGNIWKGEICNRTKQGKLYWVDTTIVPLKDNDGLLKNYISIRTDITQ | failed |
| MAHFSARLKLLSSNDGLSFGVDSRDQFRQSLYMAGGGSPLVPIRMSRLKFCARIFSSYSFPYKRKKIRDLDNTEKNLDIDEDNDEWDFDGDDDGLETDDHLSCFRGLVLDISYRPVNVVCWKRAICLEYMDKADVLEYYDQTVSSPTGSFYIPAVLRVPHLLQVVKRRRVKNSLSRKNILLRDDYTCQYCSSRENLTIDHVMPVSRGGEWTWQNLVAACSRCNSRKGQKTADEAHMKLLKVPKEPKDYDIVAIPLTNAAIRMLRSNKGMPEEWRQYLAKPLSET | failed |
| MSGSQPGRDKAIPAPRPTADIWENPDQLPADRGDLIKAKLTPAVITIFLRNNLKRIALLASALFVLGMIVLWLLPVRYAATALVMVDPREQRVTTDQEVLPGIGQDAAALQSLIEIAKSDGFLRPLVEKLKVAEDHEIAGSETDPARVLDRFRKHLEIARRGLTYVIEMTFVAKDPQRAAYYANAVAEAFVASQTQVRAVAADEAAGWLSSRLKTLNEKLRASEDAVAAFKTQYRIVDAGRESTTRQLRVTELTQQVSAARLRTEEAKNRYEQAQRDLKSDVDGSTGSKSDLVSVLRTQRTQLNDQIAQKRAVLGDRHPELVIAYNQLAELNRQIEAERKRNIVSAKSDYDAMRDQLKALEQQLKSLETEMLGDDQAAVKLKELQREANANRAIYEQFLERYNTTNQQRLLQATQTKVASFATPPTRPTRPPLLVLIAAIAVASILVSIAVVAMLASLSNQPEQADNSGPPEGATAPVPVEAAATSAAEPIEEKKPAADYSNLPIVLRIPDLSGARTLGGKLAMLGGERRLDHYVVGLLDAIGVKPSQRGMVVLVTSVDPGAGKSSVARALNAIAVDRGMLSVVIEVAGQARSVPAAPSNRAEPDGGALVRVLKTTIPSVVRLIASEPDVSAQNDVRSEFDLILIDAPALATQTEVAEIAAHTDLNLLVIDSAVTEAGAALEAQALLSRRGHAPAGVVVNKAGAQPAPAAVPAARLAS | failed |
| MNVLRRFHAWRNQAPLWWWVGLRMSALAVVTMMVIAFGMWCYFNLRYSLILSNVPAEPRAEISQLIEQPRANQARLWELFQRYYDIENFLPGLANPDWWMLGAMMTISVPVILFCGLLASRPLSRQFSQVAFAAHRVSDGDFGARAQVVRGAPDELTALADDFNTMSGRLQQYERELRDSSAMLAHELRTPLNAAMGRVQGMLDDVFPREPEQLRLVHRQLEQINRLIGDLHLVSLARAGQLVLEPESVELRELVAERIEWAGPALREAQMTIHYPTHPALRLHADRHRLGQVLSILIDNALRYAAAGKLLEIEVRRDGTGVQLTVGDRGPGVAPAQLPHLLDRFWRADSSRARHSGGSGLGLAIASAICQAHDGQLVVSNRPGGGLLASVQLPLGR | failed |
| MKTNSEELTVFVQVVESGSFSRAAEQLEMANSAVSRIVKRLEEKLGVNLLNRTTRQLNLTEEGAQYFRRAQRILQEMAAAETEMLAVHEVPQGVLRVDSAMPMVLHLLAPLAAKFNERYPHIRLSLVSSEGYINLIERKVDIALRAGELDDSGLRARHLFDSHFRVVASPEYLAKHGTPQSAEDLANHQCLGFTEPGSLNTWAVLDAQGNPYKISPHFTASSGEILRSLCLSSCGIACLSDFLVDNDITEGKLIPLFAEQTSNKTHPFNAVYYSDKAVNLRLRVFLDFLVKELGKNMNRTNTK | not failed |
